This is an account of results in patent US20130287702A1 (CASE WESTERN RESERVE UNIVERSITY, published 2013).

Where no end group is shown, it is not given here.

The target in assay [1] is T1, proteolytically cleaved PTPµ extracellular fragment in tumors of human LN-229 glioma cells (human, UniProt P28827 21-477, limits assumed).
T1 construct: The target is endogenous material deposited in tumor tissue, not a purified protein; also called proteolyzed extracellular fragment of PTPµ; PTPµ fragment
T1 sequence: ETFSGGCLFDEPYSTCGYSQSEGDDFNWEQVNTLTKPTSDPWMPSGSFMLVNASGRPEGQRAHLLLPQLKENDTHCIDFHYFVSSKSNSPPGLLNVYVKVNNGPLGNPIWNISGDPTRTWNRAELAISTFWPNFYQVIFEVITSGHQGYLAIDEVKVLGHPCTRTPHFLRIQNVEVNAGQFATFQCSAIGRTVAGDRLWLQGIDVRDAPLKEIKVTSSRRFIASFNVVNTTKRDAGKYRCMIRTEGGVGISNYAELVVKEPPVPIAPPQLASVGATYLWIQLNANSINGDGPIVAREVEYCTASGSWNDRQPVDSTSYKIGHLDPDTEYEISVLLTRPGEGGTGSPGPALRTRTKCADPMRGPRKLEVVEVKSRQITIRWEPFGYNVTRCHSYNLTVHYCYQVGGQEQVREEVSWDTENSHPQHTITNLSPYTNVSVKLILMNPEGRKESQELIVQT
The experiment in a line: fluorescent probe labeling of fixed LN-229-GFP flank tumor sections. An excerpt: The sections were rinsed with phosphate-buffered saline, coverslipped with Citifluor Antifadent Mounting Medium (Electron Microscopy Sciences), and imaged immediately at ×20 magnification on a Leica DMI 6000 B inverted microscope (Leica Microsystems GmbH, Wetzlar, Germany) using a Retiga EXi camera (QImaging, Surrey, BC) and Metamorph software (MolecularDevices, Downington, Pa.). Images were acquired across the entire tissue using bright-field and fluorescence optics for fluorescein (GFP) and Texas Red (probe). The resultant images were tiled and flattened to form a single composite image using Metamorph software.
Zoomed MR and corresponding heat map images for the tumor are shown (FIG. 15A). […] The corresponding flank tumor sections were incubated with SBK2-Texas Red or scrambled Texas Red probes. SBK2-Texas Red labeled the entire tumor with greatest intensity in the tumor center (FIG. 15B). This pattern is similar to that observed in the MR images following labeling with the SBK2-Tris-(Gd-DOTA)₃ probe. […] Anti-human vimentin antibody was used to label all the human cells in the mouse flank. […] Similar gradients of PTPμ extracellular fragment, as detected by the SBK2 probe, have been observed previously.

Assay [2] has as its target T1, proteolytically cleaved PTPµ …. The assay is described as follows: in vivo labeling of glioma intracranial tumors, Cy5 cryo-imaging.

On to GFTQPETGTDNDLWSVDNEK (not fully specified (N-terminus); also: Texas Red label, site not given here) [scrambled Texas Red probe], for which the binding result in assay [1] is reported as “no binding (tested: 1 µM)”.

B1: scrambled-Cy5 probe (peptide)
peptide: GFTQPETGTDNDLWSVDNEK
modifications: not fully specified (N-terminus)
notes: Same uncertainty about the added N-terminal glycine as for SBK2-Cy5; also called scrambled probe; scrambled version of the PTPµ probe
Turning to B1, the binding result in assay [2] is reported as “no binding”.
